Consider 167 variants from the RNAGym collection of RNA variant scans (doi:10.7554/elife.80360).

B1: Twister Ribozyme (parent)
chain: AACACUGCCAAUGCCGGUCCCAAGCCCGGAUAAAAGUGGAGGGGGCGG

In the series the parent is B1. Description: self-cleavage, relative activity (ratio to wild type); higher = more cleavage; co-transcriptional.
On to G47C G48C, for which the self-cleavage was determined as 0.799.

With A11C G45C, the self-cleavage was determined as 0.581.

Take C8A A23C: the self-cleavage turned out to be 0.0825.

Take A34U G48U: the self-cleavage came out at 0.811.

Take G41C G47C: the self-cleavage turned out to be 0.162.

Turning to G16C G47U, the self-cleavage stood at 0.602.

As to A10U G28A, the self-cleavage came to 0.885.

For the variant C8A A40G, the self-cleavage was found to be 0.17.

C3A C19G: the self-cleavage is 0.0471.

With C21U A32U, the self-cleavage is 0.127.

C25U G36U: the self-cleavage came out at 0.123.

Regarding U12A C25G, the self-cleavage came out at 0.423.

For the variant C26A C46U, the self-cleavage turned out to be 0.624.

Take C3G U37C: the self-cleavage came out at 0.18.

For C14U G16C, the self-cleavage worked out at 0.36.

As to A4G A23G, the self-cleavage is 0.384.

Take A11C C15U: the self-cleavage was found to be 0.545.

Consider G28U G38A, for which the self-cleavage came to 0.763.

As for C20A G24C, the self-cleavage is 0.0912.

C20A G24U: the self-cleavage came out at 0.0913.

Consider A10G A32C, for which the self-cleavage is 1.02.

As to G17A G45A, the self-cleavage came to 0.386.

As to C9G A35C, the self-cleavage amounted to 0.556.

Turning to A1C C19U, the self-cleavage worked out at 0.205.

C21A C46U: the self-cleavage was 0.13.

As for A10G C26G, the self-cleavage turned out to be 0.354.

As to G7C A23G, the self-cleavage was 0.13.

Regarding G28U G47A, the self-cleavage turned out to be 0.374.

For the variant A10C C21A, the self-cleavage came to 0.124.

In the case of G16A C19U, the self-cleavage came out at 0.826.

On to U6G U37C, for which the self-cleavage is 0.159.

G16A G29C: the self-cleavage is 0.339.

As for C20U G41U, the self-cleavage came out at 0.141.

For the variant C8U A33U, the self-cleavage is 0.531.

Turning to G7C A33C, the self-cleavage came out at 0.0837.

Consider C3U A4C, for which the self-cleavage turned out to be 0.106.

For C26U G36A, the self-cleavage turned out to be 0.0777.

Regarding C19G G24A, the self-cleavage is 0.0928.

For C19G G24C, the self-cleavage turned out to be 0.125.

On to U6A A35U, for which the self-cleavage is 0.992.

As to C27U, the self-cleavage worked out at 0.876.

With A22U G42C, the self-cleavage was found to be 0.154.

For A32U G36U, the self-cleavage is 0.148.

For the variant C5U A34C, the self-cleavage is 0.166.

For the variant A40G G45C, the self-cleavage is 0.148.

C8U A11U: the self-cleavage was 0.973.

As for A1U G44C, the self-cleavage came to 0.0624.

Consider U31A G38C, for which the self-cleavage worked out at 0.801.

As to A1G G28U, the self-cleavage amounted to 0.428.

C3U U37A: the self-cleavage was 0.533.

For the variant A11G G43A, the self-cleavage was 0.234.

Consider C3A C5U, for which the self-cleavage was 0.159.

Regarding U18C A30G, the self-cleavage worked out at 0.713.

With U6A A40C, the self-cleavage was found to be 0.15.

U12G G45C: the self-cleavage is 0.288.

In the case of G16C C20U, the self-cleavage was found to be 0.489.

For G29A C46U, the self-cleavage was 0.948.

Consider A23C G45A, for which the self-cleavage came out at 0.118.

For G29C U37G, the self-cleavage is 0.4.

With G38C C46U, the self-cleavage was 0.855.

As to A33C C46A, the self-cleavage came out at 0.934.

For C25A C26A, the self-cleavage came out at 0.0988.

Consider C19A G24U, for which the self-cleavage was 0.0798.

In the case of A11C U31C, the self-cleavage came to 0.876.

Regarding C20G C25U, the self-cleavage turned out to be 0.0692.

In the case of A32U A34C, the self-cleavage is 0.231.

Turning to C14G C26A, the self-cleavage was determined as 0.0764.

For the variant A10U C21G, the self-cleavage is 0.126.

With C26G C46U, the self-cleavage came to 0.361.

Regarding U6G G16U, the self-cleavage amounted to 0.296.

As to U31A A35C, the self-cleavage was 0.889.

For the variant A10U C26U, the self-cleavage came to 0.437.

Take C15A C21A: the self-cleavage is 0.133.

C15A C21U: the self-cleavage was found to be 0.0997.

In the case of C19G C20U, the self-cleavage stood at 0.117.

With A1G C27G, the self-cleavage amounted to 0.178.

Regarding A2C C8G, the self-cleavage came out at 0.0519.

Take G24A C25U: the self-cleavage stood at 0.0836.

G28C G29U: the self-cleavage came to 0.98.

In the case of G7C G42U, the self-cleavage was 0.0563.

In the case of C19A C21U, the self-cleavage was found to be 0.0833.

In the case of A30C G39U, the self-cleavage was found to be 0.106.

For the variant C5U G7C, the self-cleavage turned out to be 0.0595.

In the case of A11G G39A, the self-cleavage stood at 0.477.

As to A11U A32U, the self-cleavage is 1.1.

As to G13A U18A, the self-cleavage is 0.0831.

Take G17C G39U: the self-cleavage came to 0.0818.

Take A2U G43A: the self-cleavage turned out to be 0.128.

Consider G36U C46G, for which the self-cleavage is 0.313.

Turning to G36U C46A, the self-cleavage worked out at 0.31.

Regarding U18A C46U, the self-cleavage was 0.617.

With A1G G29C, the self-cleavage was 0.29.

With U18C U31A, the self-cleavage was determined as 0.54.

With C19G G29C, the self-cleavage worked out at 0.0886.

For U37A G44A, the self-cleavage came to 0.873.

As to G44U G47C, the self-cleavage worked out at 0.523.

Take A35G: the self-cleavage amounted to 0.864.

C26U A30C: the self-cleavage worked out at 0.0974.

Turning to A40G G41A, the self-cleavage amounted to 0.141.

As for C19A G38U, the self-cleavage stood at 0.12.

With C9U C19U, the self-cleavage turned out to be 0.226.

On to C15A C19G, for which the self-cleavage stood at 0.151.

For the variant A2C U37G, the self-cleavage was 0.057.

With G13U U31G, the self-cleavage is 0.667.

Consider C9U G24U, for which the self-cleavage stood at 0.0861.

Regarding U18C U37A, the self-cleavage came to 0.197.

With A1G U6G, the self-cleavage was 0.0944.

For the variant G13U C46A, the self-cleavage was 0.361.

In the case of A2U G39C, the self-cleavage is 0.18.

Turning to A10G G41U, the self-cleavage stood at 0.781.

In the case of A30G G43U, the self-cleavage came out at 0.498.

Consider C14U G17A, for which the self-cleavage is 0.538.

As to G7U A40U, the self-cleavage stood at 0.072.

With A11C C26A, the self-cleavage turned out to be 0.183.

G24C G41C: the self-cleavage was found to be 0.0814.

As for G39A G44C, the self-cleavage came out at 0.231.

G38C G41C: the self-cleavage was 0.181.

Regarding G16A C20A, the self-cleavage is 0.12.

Turning to A4U C21G, the self-cleavage came to 0.0541.

In the case of C26U G38C, the self-cleavage was found to be 0.225.

On to G42U G48C, for which the self-cleavage amounted to 0.571.

In the case of G36U G43A, the self-cleavage was found to be 0.102.

As for C5A G29U, the self-cleavage is 0.51.

Take A1U G29A: the self-cleavage amounted to 0.0545.

Consider C26G G38C, for which the self-cleavage amounted to 0.202.

For the variant A4U G24A, the self-cleavage is 0.0658.

For A4U G24C, the self-cleavage came out at 0.0697.

Turning to G38A G47U, the self-cleavage stood at 0.814.

With C21U U37G, the self-cleavage was found to be 0.0506.

With A4C U12A, the self-cleavage was found to be 0.193.

For the variant G7U G13U, the self-cleavage was 0.0485.

Turning to C26G A35G, the self-cleavage is 0.16.

Consider C21A C27U, for which the self-cleavage was found to be 0.0904.

Take C8G G42U: the self-cleavage amounted to 0.147.

As for C9U A22G, the self-cleavage came to 0.0671.

A1U C15G: the self-cleavage was determined as 0.0744.

Regarding C3U G48A, the self-cleavage is 0.381.

As for C25G A40G, the self-cleavage was 0.129.

Regarding C14U G45U, the self-cleavage was 0.964.

On to G24C C27U, for which the self-cleavage amounted to 0.0994.

U31A C46G: the self-cleavage is 0.763.

As to A22C A30C, the self-cleavage amounted to 1.07.

In the case of A10C A35U, the self-cleavage came to 1.04.

As for A4C G42C, the self-cleavage is 0.125.

As to A4G G13A, the self-cleavage came out at 0.563.

For the variant C15G C19U, the self-cleavage stood at 0.0895.

Turning to A10C C26G, the self-cleavage worked out at 0.175.

Take U12G A22U: the self-cleavage turned out to be 0.706.

Regarding C3U G28A, the self-cleavage was found to be 0.409.

Consider A23G G36A, for which the self-cleavage was 0.126.

For the variant C20U G43A, the self-cleavage came to 0.177.

A22C A32C: the self-cleavage is 1.08.

Take C27U A34G: the self-cleavage came out at 0.483.

Regarding A4G C19U, the self-cleavage stood at 0.887.

G16A A35U: the self-cleavage amounted to 1.05.

With G13A G17A, the self-cleavage worked out at 0.121.

With A34G U37C, the self-cleavage came out at 0.0836.

U6G G29A: the self-cleavage worked out at 0.19.

Consider A1G G36C, for which the self-cleavage was found to be 0.227.

On to C5A A32C, for which the self-cleavage came out at 0.413.

For A4G G7U, the self-cleavage was determined as 0.052.

A33U G43A: the self-cleavage is 0.233.

Regarding U12G G48U, the self-cleavage was 0.789.

For G7U G16C, the self-cleavage was 0.0533.

C3A A11C: the self-cleavage came to 0.153.

For U18G G44C, the self-cleavage came to 0.0756.

In the case of C21A A22U, the self-cleavage turned out to be 0.0641.
